Reference: the Immune Epitope Database (IEDB)
pKd: −log10 of the molar value.

What follows are sequences tested against HLA-A*02:01 (assay: IEDB peptide-MHC binding, purified MHC/direct/fluorescence; filed as Kd, often an IC50 or EC50 that approximates it; ≥ and ≤ were set here for values at or beyond the usual limits of such assays). Settings: source organism: Human immunodeficiency virus 1.
In the case of KSLFNTIATL, the pKd was 8.30.
KSLFNTIATLY gave a pKd of 8.30.
With KSLFNTIAVL the pKd was 8.30.
Sequence KSLFNTIAVLY has a pKd of 8.30.
For KSLFNTVATL, the pKd was 8.30.
In the case of KSLFNTVATLY, the pKd was 8.30.
With KSLFNTVAVL the pKd was 8.30.
In the case of KSLYNTIATL, the pKd was 8.30.
In the case of KSLYNTIATLY, the pKd was 7.70.
KSLYNTIAVL was tested, and the pKd was 8.30.
KSLYNTVATL was tested, and the pKd was 8.00.
KSLYNTVATLY was tested, and the pKd was 8.30.
Work on KSLYNTVAVL yielded a pKd of 8.30.
KSLYNTVAVLY was tested, and the pKd was 8.30.
In the case of RSLFNTIATLY, the pKd was 8.30.
RSLFNTIAVL was tested, and the pKd was 8.30.
Work on RSLFNTIAVLY yielded a pKd of 8.30.
Work on RSLFNTVATL yielded a pKd of 8.30.
In the case of RSLFNTVAVL, the pKd was 8.00.
RSLFNTVAVLY showed a pKd of 8.30.
RSLYNTIATL gave a pKd of 8.00.
Work on RSLYNTIATLY yielded a pKd of 7.40.
Work on RSLYNTIAVL yielded a pKd of 8.30.
RSLYNTIAVLY gave a pKd of 8.30.
Sequence RSLYNTVATL has a pKd of 8.00.
Work on RSLYNTVATLY yielded a pKd of 8.00.
Work on RSLYNTVAVL yielded a pKd of 8.30.
RSLYNTVAVLY gave a pKd of 8.00.
Sequence SLFNTIATLY has a pKd of 8.30.
For SLFNTIAVLY, the pKd was 8.30.
With SLFNTVATLY the pKd was 8.30.
SLFNTVAVLY was tested, and the pKd was 8.30.
Work on SLYNTIATLY yielded a pKd of 8.30.
SLYNTIAVLY showed a pKd of 8.30.
SLYNTVAVLY showed a pKd of 8.30.
